Each binder was assayed against T1, GST-tagged N-terminal region of INTS3 (GST-INTS3^N, 1-513 amino acids) (human, UniProt Q68E01 1-513) (assay: pull-down; GST-INTS3^FL, -INTS3^N or -INTS3^C incubated with hNABP1/2 or C9ORF80 at 4 C for 1 h, then glutathione-agarose beads 1 h; eluted with 10 mM glutathione; Western blot). Details: both partners purified.
T1 construct: Integrator complex subunit 3 (INTS3), human, N-terminal region, residues 1-513; pGEX-6P-1; source: E. coli Rosetta 2, purified (glutathione sepharose beads); not shown: GST, N-terminal, kept
T1 sequence (Q68E01 1-513): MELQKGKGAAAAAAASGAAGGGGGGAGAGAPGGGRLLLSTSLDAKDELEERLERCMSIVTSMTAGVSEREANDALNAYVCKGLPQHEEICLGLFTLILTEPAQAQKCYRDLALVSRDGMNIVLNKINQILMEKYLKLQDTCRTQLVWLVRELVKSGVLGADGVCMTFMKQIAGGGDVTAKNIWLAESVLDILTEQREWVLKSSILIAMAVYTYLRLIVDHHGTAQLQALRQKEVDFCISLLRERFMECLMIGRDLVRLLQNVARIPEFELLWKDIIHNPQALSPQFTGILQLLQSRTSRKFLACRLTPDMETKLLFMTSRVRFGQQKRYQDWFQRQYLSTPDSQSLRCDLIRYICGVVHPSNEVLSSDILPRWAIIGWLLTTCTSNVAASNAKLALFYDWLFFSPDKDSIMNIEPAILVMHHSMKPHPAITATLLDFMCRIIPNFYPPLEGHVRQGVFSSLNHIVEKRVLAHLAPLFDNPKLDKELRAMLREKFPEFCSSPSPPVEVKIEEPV

binding result	Binder
binds	Human nucleic acid-binding protein 1 (hNABP1) (natural protein, UniProt Q96AH0 1-204, looked up, also called hSSB2; source: also co-expressed (pET29a) with GST-INTS3 and C9ORF80 in E. coli Rosetta 2, in lysate) MNRVNDPLIFIRDIKPGLKNLNVVFIVLEIGRVTKTKDGHEVRSCKVADKTGSITISVWDEIGGLIQPGDIIRLTRGYASMWKGCLTLYTGRGGELQKIGEFCMVYSEVPNFSEPNPDYRGQQNKGAQSEQKNNSMNSNMGTGTFGPVGNGVHTGPESREHQFSHAGRSNGRGLINPQLQGTASNQTVMTTISNGRDPRRAFKR
binds	Human nucleic acid-binding protein 2 (hNABP2) (natural protein, UniProt Q9BQ15 1-211, looked up, also called hSSB1; source: also co-expressed (pET29a) with GST-INTS3 and C9ORF80 in E. coli Rosetta 2, in lysate) MTTETFVKDIKPGLKNLNLIFIVLETGRVTKTKDGHEVRTCKVADKTGSINISVWDDVGNLIQPGDIIRLTKGYASVFKGCLTLYTGRGGDLQKIGEFCMVYSEVPNFSEPNPEYSTQQAPNKAVQNDSNPSASQPTTGPSAASPASENQNGNGLSAPPGPGGGPHPPHTPSHPPSTRITRSQPNHTPAGPPGPSSNPVSNGKETRRSSKR
binds	C9ORF80, His-tagged (natural protein, human, UniProt Q9NRY2 1-104, looked up, C9ORF80, human cDNA clone; pET28a, NcoI/XhoI sites (this would give a C-terminal His tag); the printed masses fit the whole 104-residue protein; also called C9OFR80; source: peak 2); also co-expressed with GST-INTS3 and hNABP1/2 in E. coli Rosetta 2, in lysate) MAANSSGQGFQNKNRVAILAELDKEKRKLLMQNQSSTNHPGASIALSRPSLNKDFRDHAEQQHIAAQQKAALQHAHAHSSGYFITQDSAFGNLILPVLPRLDPE
